B1: Rat beta-nerve growth factor (protein, UniProt P25427 122-241, looked up)
Beta-nerve growth factor: SSTHPVFHMGEFSVCDSVSVWVGDKTTATDIKGKEVTVLGEVNINNSVFKQYFFETKCRAPNPVESGCRGIDSKHWNSYCTTTHTFVKALTTDDKQAAWRFIRIDTACVCVLSRKAARRG
notes: Rat beta-nerve growth factor (R&D Systems 556-NG-100)
B2: glial cell line-derived neurotrophic factor (protein, UniProt P39905 78-211, looked up)
Glial cell line-derived …: SPDKQMAVLPRRERNRQAAAANPENSRGKGRRGQRGKNRGCVLTAIHLNVTDLGLGYETKEELIFRYCSGSCDAAETTYDKILKNLSRNRRLVSDKVGQACCRPIAFDDDLSFLDDNLVYHILRKHSAKRCGCI
notes: glial cell line-derived neurotrophic factor (R&D Systems 512-GF-010/CF)

Key:
rat fibroblast = test: Supplemental rat fibroblast viability study after printing in the bioink; assay type: cell-based; details: rat fibroblasts; compared to I2959 counterparts
From the text: It is anticipated that crosslinking time can be reduced for the LAP group in the future to further increase viability.^40 Therefore, LAP became the crosslinker used for the later experiments for the advantages of LAP over I2959, as previously reported.^31,41

DRG neurites = test: DRG neurite outgrowth in competitive in vitro test beds, β-III tubulin neurite length; assay type: cell-based; details: 7 days, n=5; for ratio of neurite length, growth factor side to control side: growth factor/control test bed, 1 μg/mL
Description: (§1) DRG Neurite Outgrowth in Competitive in vitro Test Beds. A 6-layer rectangular model with two arms or “chambers” were printed on each end (12 mm long, 5 mm wide, and 1.7 mm height). A base layer (0.7 mm height) was printed containing only the hydrogel. On top of the base on either side two “chambers” were printed; each chamber contained a concentration of 1 μg/mL of either NGF, GDNF, or no GF as control. To establish a competitive cue assay, three test bed groups were printed: NGF versus control (NGF/control), GDNF/control, or NGF/GDNF. DRGs were trimmed on the same day as testbed fabrication. Each DRG was semi-encapsulated at the center of the hydrogel testbeds by first placing the DRG directly in the middle of the two-chambered testbed and then securing in place with pH-neutralized Col-d solution at a concentration of 3 mg/mL. Col-d allowed for securing the DRG quickly without the need for direct UV exposure of the DRG. The test beds were incubated for 30 minutes to allow for collagen gelation and then media was added. Media was changed three hours following the addition of DRGs to account for bulk growth factor release into the media. DRGs were cultured for 7 days with media being changed every 2 days.
Following 7 days of culture, DRGs were fixed in 2% paraformaldehyde for 1 hour followed by three PBS rinses of 45 minutes each before blocking in 0.3% Triton X-100 and 3% goat serum in 1×PBS for 1 hour. The primary antibodies used were β-III tubulin to identify microtubules (i.e., indicating neurite extension) and GAP43, a “plasticity” protein that is expressed at high levels in neuronal growth cones (a secondary indicator of new neurite formation). Both antibodies were diluted at 1:500 dilutions and incubated on samples at 4° C. for 48 hours. […] ImageJ and the neurite tracer plugin were used to quantify neurite lengths extending from the DRG body. […] Positive area was measured as directional outgrowth from each DRG in the left and right directions toward the growth factor chambers relative to the center of the DRG body. […]

[1] = test system: DRG neural growth cone (GAP43); test: DRG neurite outgrowth in competitive in vitro test beds, GAP43 signal; assay type: cell-based; details: normalized to total positive area, 7 days, n=3
Description: as §1
Following 7 days of culture, DRGs were fixed in 2% paraformaldehyde for 1 hour followed by three PBS rinses of 45 minutes each before blocking in 0.3% Triton X-100 and 3% goat serum in 1×PBS for 1 hour. The primary antibodies used were β-III tubulin to identify microtubules (i.e., indicating neurite extension) and GAP43, a “plasticity” protein that is expressed at high levels in neuronal growth cones (a secondary indicator of new neurite formation). Both antibodies were diluted at 1:500 dilutions and incubated on samples at 4° C. for 48 hours. DRGs were then washed with 0.05% Tween-20 in 1×PBS three times for 6 hours each. Secondary antibodies, AlexaFluor 488 α-rabbit and AlexaFluor 568 α-mouse at 1:500 dilutions, were added for 16 hours in blocking buffer. DRGs were rinsed with 0.05% Tween-20 in 1×PBS three times for 6 hours each. Cell nuclei were stained with DAPI in deionized water for 5 minutes at room temperature. For β-III tubulin marker, top-view images of DRGs were acquired with a Zeiss Axio Imager 2 microscope. ImageJ and the neurite tracer plugin were used to quantify neurite lengths extending from the DRG body. From a ranked list of directional neurite lengths, the five longest neurite extensions were averaged for each chamber side. […] For the GAP43 marker, samples were imaged from the top with a Zeiss LMA 880 confocal microscope. ImageJ was used to threshold positive signal for all images. Positive area was measured as directional outgrowth from each DRG in the left and right directions toward the growth factor chambers relative to the center of the DRG body. […]

Schwann cells (SCs) = test: SC migration in 3D bioprinted hydrogels; assay type: cell-based, Rat; details: 1 μg/mL growth factor in bioprinted MAHA 10/Col-I hydrogel; 7 days; n=5
Description: SC Migration in 3D Bioprinted Hydrogels. The experimental groups included 1 μg/mL of NGF or GDNF encapsulated within 1 mL of bioink, whereas the control group contained no growth factor (no GF) (n=5). The bioinks were used to print a cylinder of 8 mm diameter and 2 mm height. The control group was printed without any growth factor. Next, SCs were seeded on top of the hydrogels at a cell density of 10^5 cells/cm^2 and cultured for 7 days with the media changed every 2 days. Hydrogel samples, stained using a Live/Dead assay, were then placed cell-side-down in a 35-mm diameter glass-bottom dish and imaged using a Zeiss LSM 880 laser-scanning confocal microscope. Z-stacked image of 500 μm deep at 10× magnification were analyzed to assess SC migration into the hydrogel using a Zeiss ZEN 2 software by creating a heat map based on relative depth within the hydrogel to measure the farthest migration points (n=5) in each sample. By taking the average of cell migration depth, this assessment examined the total migration into the biomaterials in 3D culture.

Row | Molecule | viability of bioprinted cells by photoinitiator (rat fibroblast) | ratio of neurite length, NGF to GDNF (DRG neurites; NGF/GDNF test bed, 1 μg/mL each) | ratio of neurite length, growth factor side to control side (DRG neurites) | fraction positive GAP43 signal ([1]; NGF/GDNF test bed) | fraction positive GAP43 signal ([1]; growth factor/control test bed) | SCs migrated distance into hydrogels (Schwann cells (SCs))
1 | Cc1cc(C)c(C(=O)P(=O)([O-])c2ccccc2)c(C)c1.[Li+] [LAP, lithium phenyl-2,4,6-trimethylbenzoyl-phosphinate] | highest viability | – | – | – | – | –
2 | B1 | – | 1.09±0.19 | 1.42±0.13 | 0.58 | 0.63 | 301±89.4 μm
3 | B2 | – | – | 1.41±0.06 | 0.42 | 0.66 | 403±79.6 μm

Reference: US12195761B2, “Bioprinted, 3D scaffolds for cellular test beds and methods of use thereof” (University of Florida Research Foundation, Inc., priority 2020, dated 2025)
